Reference: PMC10855554

Columns and labels:
TbTim10-Myc (T. brucei) = experiment: co-IP; anti-Myc agarose beads, 1% digitonin-solubilised mitochondrial extract of double-tagged T. brucei cells (day 2 of induction), 50 mM Tris pH 7.2, 50 mM NaCl, 10% glycerol, 12 h at 4 °C; immunoblot, bound fraction as percent of input
TbTim13-HA (T. brucei) = experiment: co-IP; anti-HA agarose beads, 1% digitonin-solubilised mitochondrial extract of double-tagged T. brucei cells (day 2 of induction), 50 mM Tris pH 7.2, 50 mM NaCl, 10% glycerol, 12 h at 4 °C; immunoblot, bound fraction as percent of input
TbTim9-HA (T. brucei) = experiment: as above
TbTim10-HA (T. brucei) = experiment: as above
TbTim12-HA (T. brucei) = experiment: as above
TbTim8/13-HA (T. brucei) = experiment: as above

Q: How did the percent of input co-precipitated (% of the input) (TbTim10-Myc (T. brucei)) turn out when TbTim12-HA (natural protein) was run?
A: Its percent of input co-precipitated (% of the input) is 30.

Q: How did the percent of input co-precipitated (% of the input) (TbTim10-Myc (T. brucei)) turn out when TbTim10-HA (natural protein) was run?
A: The percent of input co-precipitated (% of the input) was 25.

Q: How did the percent of input co-precipitated (% of the input) (TbTim10-Myc (T. brucei)) turn out when TbTim8/13-HA (natural protein) was run?
A: The percent of input co-precipitated (% of the input) was 45.

Q: What does the source list for TbTim10-Myc (natural protein)?
A: percent of input co-precipitated (TbTim13-HA (T. brucei)): < 10%; percent of input co-precipitated (% of the input) (TbTim9-HA (T. brucei)): 45; percent of input co-precipitated (TbTim10-HA (T. brucei)): < 10%; percent of input co-precipitated (TbTim12-HA (T. brucei)): < 10%; percent of input co-precipitated (% of the input) (TbTim8/13-HA (T. brucei)): 45

Q: TbTim9-HA (natural protein) was tested. Which percent of input co-precipitated (% of the input) (TbTim10-Myc (T. brucei)) did it give?
A: The percent of input co-precipitated (% of the input) was 35.
